Each binder was assayed against HLA-A*0301 (purified HLA class I molecule) (human) (assay: competition vs 125I standard peptide, purified HLA).

Binder | relative binding ratio
LTLIDTNRSR [HER2/neu peptide, position 181, 10 amino acids] | 0.0002 ratio (IC50 standard/IC50 test)
LACHQLCAR [HER2/neu peptide, position 509, 9 amino acids] | -0.0002 ratio (IC50 standard/IC50 test)
KIRKYTMR [HER2/neu peptide, position 681, 8 amino acids] | 0.001 ratio (IC50 standard/IC50 test)
HSCVDLDDK [HER2/neu peptide, position 632, 9 amino acids] | -0.0002 ratio (IC50 standard/IC50 test)
HADGGKVPIK [HER2/neu peptide, position 878, 10 amino acids] | 0.0003 ratio (IC50 standard/IC50 test)
LVHRDLAAR [HER2/neu peptide, position 841, 9 amino acids] | 0.004 ratio (IC50 standard/IC50 test)
LALTLIDTNR [HER2/neu peptide, position 179, 10 amino acids] | -0.0002 ratio (IC50 standard/IC50 test)
MALESILRRR [HER2/neu peptide, position 889, 10 amino acids] | 0.0011 ratio (IC50 standard/IC50 test)
LSPGKNGVVK [HER2/neu peptide, position 1173, 10 amino acids] | -0.0002 ratio (IC50 standard/IC50 test)
MIDSECRPR [HER2/neu peptide, position 960, 9 amino acids] | 0.0017 ratio (IC50 standard/IC50 test)
GVGSPYVSR [HER2/neu peptide, position 776, 9 amino acids] | 0.001 ratio (IC50 standard/IC50 test)
LIKRRQQKIR [HER2/neu peptide, position 674, 10 amino acids] | 0.0002 ratio (IC50 standard/IC50 test)
KIPVAIKVLR [HER2/neu peptide, position 747, 10 amino acids] | 0.0009 ratio (IC50 standard/IC50 test)

What follows are binders tested against T1, HLA-A*1101 (purified HLA class I molecule) (human) (assay: competition vs 125I standard peptide, purified HLA).
T1 construct: Purified MHC molecule

Binder | relative binding ratio
LTLIDTNRSR [HER2/neu peptide, position 181, 10 amino acids] | 0.0005 ratio (IC50 standard/IC50 test)
LACHQLCAR [HER2/neu peptide, position 509, 9 amino acids] | 0.0003 ratio (IC50 standard/IC50 test)
KIRKYTMR [HER2/neu peptide, position 681, 8 amino acids] | 0.0004 ratio (IC50 standard/IC50 test)
HSCVDLDDK [HER2/neu peptide, position 632, 9 amino acids] | 0.0007 ratio (IC50 standard/IC50 test)
HADGGKVPIK [HER2/neu peptide, position 878, 10 amino acids] | 0.0008 ratio (IC50 standard/IC50 test)
LVHRDLAAR [HER2/neu peptide, position 841, 9 amino acids] | 0.0014 ratio (IC50 standard/IC50 test)
LALTLIDTNR [HER2/neu peptide, position 179, 10 amino acids] | 0.0003 ratio (IC50 standard/IC50 test)
MALESILRRR [HER2/neu peptide, position 889, 10 amino acids] | 0.0003 ratio (IC50 standard/IC50 test)
LSPGKNGVVK [HER2/neu peptide, position 1173, 10 amino acids] | 0.0003 ratio (IC50 standard/IC50 test)
MIDSECRPR [HER2/neu peptide, position 960, 9 amino acids] | 0.0006 ratio (IC50 standard/IC50 test)
GVGSPYVSR [HER2/neu peptide, position 776, 9 amino acids] | 0.0066 ratio (IC50 standard/IC50 test)
LIKRRQQKIR [HER2/neu peptide, position 674, 10 amino acids] | 0.0001 ratio (IC50 standard/IC50 test)
KIPVAIKVLR [HER2/neu peptide, position 747, 10 amino acids] | 0.0099 ratio (IC50 standard/IC50 test)

The binders below were run against T2, HLA-A*0201 (human) (assay: competition with 125I-labelled standard peptide 941.01 ([..]) on purified HLA, gel filtration).
T2 construct: also called HLA-A2.1

Binder | relative binding ratio
GIPAREIPDL (Synthetic peptide) [HER2/neu A02 supermotif peptide, position 925, 10 amino acids] | 0.0001 ratio (IC50 of standard peptide / IC50 of test peptide)
GLRELQLRSL (Synthetic peptide) [HER2/neu A02 supermotif peptide, position 136, 10 amino acids] | 0.0001 ratio (IC50 of standard peptide / IC50 of test peptide)
HVKITDFGL (Synthetic peptide) [HER2/neu A02 supermotif peptide, position 858, 9 amino acids] | 0.0002 ratio (IC50 of standard peptide / IC50 of test peptide)
GVGSPYVSRL (Synthetic peptide) [HER2/neu A02 supermotif peptide, position 776, 10 amino acids] | 0.0001 ratio (IC50 of standard peptide / IC50 of test peptide)
GLGISWLGL (Synthetic peptide) [HER2/neu A02 supermotif peptide, position 447, 9 amino acids] | 0.0018 ratio (IC50 of standard peptide / IC50 of test peptide)
GICLTSTVQL (Synthetic peptide) [HER2/neu A02 supermotif peptide, position 787, 10 amino acids] | 0.0004 ratio (IC50 of standard peptide / IC50 of test peptide)
GIWIPDGENV (Synthetic peptide) [HER2/neu A02 supermotif peptide, position 737, 10 amino acids] | 0.0002 ratio (IC50 of standard peptide / IC50 of test peptide)
GICELHCPAL (Synthetic peptide) [HER2/neu A02 supermotif peptide, position 262, 10 amino acids] | 0.0005 ratio (IC50 of standard peptide / IC50 of test peptide)
GLGMEHLREV (Synthetic peptide) [HER2/neu A02 supermotif peptide, position 344, 10 amino acids] | 0.0017 ratio (IC50 of standard peptide / IC50 of test peptide)
HADGGKVPI (Synthetic peptide) [HER2/neu A02 supermotif peptide, position 878, 9 amino acids] | 0.0002 ratio (IC50 of standard peptide / IC50 of test peptide)
GILLVVVLGV (Synthetic peptide) [HER2/neu A02 supermotif peptide, position 660, 10 amino acids] | 0.0007 ratio (IC50 of standard peptide / IC50 of test peptide)
IISAVVGILL (Synthetic peptide) [HER2/neu A02 supermotif peptide, position 654, 10 amino acids] | 0.012 ratio (IC50 of standard peptide / IC50 of test peptide)
HVRENRGRL (Synthetic peptide) [HER2/neu A02 supermotif peptide, position 809, 9 amino acids] | 0.0002 ratio (IC50 of standard peptide / IC50 of test peptide)
GMSYLEDVRL (Synthetic peptide) [HER2/neu A02 supermotif peptide, position 832, 10 amino acids] | 0.0017 ratio (IC50 of standard peptide / IC50 of test peptide)
GISWLGLRSL (Synthetic peptide) [HER2/neu A02 supermotif peptide, position 449, 10 amino acids] | 0.0003 ratio (IC50 of standard peptide / IC50 of test peptide)
GAYSLTLQGL (Synthetic peptide) [HER2/neu A02 supermotif peptide, position 439, 10 amino acids] | 0.003 ratio (IC50 of standard peptide / IC50 of test peptide)
GVLIQRNPQL (Synthetic peptide) [HER2/neu A02 supermotif peptide, position 152, 10 amino acids] | 0.0036 ratio (IC50 of standard peptide / IC50 of test peptide)

The binders below were run against HLA-A*1101 (purified HLA class I molecule) (human) (assay: inhibition of 125I probe peptide binding to purified HLA; ratio to standard peptide).

Binder | relative binding ratio
CTGTDMKLR (also called Her2/neu.26 (9-mer)) [HER2/neu peptide, position 26, 9 amino acids] | 0.0005 ratio (IC50 standard / IC50 test)
GLGISWLGLR (also called Her2/neu.447 (10-mer)) [HER2/neu peptide, position 447, 10 amino acids] | 0.0001 ratio (IC50 standard / IC50 test)
CAAGCTGPK (also called Her2/neu.240 (9-mer)) [HER2/neu peptide, position 240, 9 amino acids] | 0.0021 ratio (IC50 standard / IC50 test)
CLLDHVRENR (also called Her2/neu.805 (10-mer)) [HER2/neu peptide, position 805, 10 amino acids] | 0.0001 ratio (IC50 standard / IC50 test)
GILIKRRQQK (also called Her2/neu.672 (10-mer)) [HER2/neu peptide, position 672, 10 amino acids] | 0.0014 ratio (IC50 standard / IC50 test)
GLPREYVNAR (also called Her2/neu.549 (10-mer)) [HER2/neu peptide, position 549, 10 amino acids] | 0.0003 ratio (IC50 standard / IC50 test)
ALESILRRR (also called Her2/neu.890 (9-mer)) [HER2/neu peptide, position 890, 9 amino acids] | 0.0006 ratio (IC50 standard / IC50 test)
AMPNQAQMR (also called Her2/neu.705 (9-mer)) [HER2/neu peptide, position 705, 9 amino acids] | 0.0006 ratio (IC50 standard / IC50 test)
ALTLIDTNR (also called Her2/neu.180 (9-mer)) [HER2/neu peptide, position 180, 9 amino acids] | 0.0005 ratio (IC50 standard / IC50 test)
EVTAEDGTQR (also called Her2/neu.321 (10-mer)) [HER2/neu peptide, position 321, 10 amino acids] | 0.0001 ratio (IC50 standard / IC50 test)
DLAARNVLVK (also called Her2/neu.845 (10-mer)) [HER2/neu peptide, position 845, 10 amino acids] | 0.0007 ratio (IC50 standard / IC50 test)
GLACHQLCAR (also called Her2/neu.508 (10-mer)) [HER2/neu peptide, position 508, 10 amino acids] | 0.0001 ratio (IC50 standard / IC50 test)
ETEYHADGGK (also called Her2/neu.874 (10-mer)) [HER2/neu peptide, position 874, 10 amino acids] | 0.0001 ratio (IC50 standard / IC50 test)
DVRPQPPSPR (also called Her2/neu.1144 (10-mer)) [HER2/neu peptide, position 1144, 10 amino acids] | 0.0001 ratio (IC50 standard / IC50 test)

The binders below were run against T3, HLA-A*0301 (purified HLA class I molecule) (human) in the same assay as above.
T3 construct: also called A3

Binder | relative binding ratio
CTGTDMKLR (also called Her2/neu.26 (9-mer)) [HER2/neu peptide, position 26, 9 amino acids] | 0.0002 ratio (IC50 standard / IC50 test)
GLGISWLGLR (also called Her2/neu.447 (10-mer)) [HER2/neu peptide, position 447, 10 amino acids] | 0.0037 ratio (IC50 standard / IC50 test)
CAAGCTGPK (also called Her2/neu.240 (9-mer)) [HER2/neu peptide, position 240, 9 amino acids] | 0.0021 ratio (IC50 standard / IC50 test)
CLLDHVRENR (also called Her2/neu.805 (10-mer)) [HER2/neu peptide, position 805, 10 amino acids] | 0.0003 ratio (IC50 standard / IC50 test)
GILIKRRQQK (also called Her2/neu.672 (10-mer)) [HER2/neu peptide, position 672, 10 amino acids] | 0.015 ratio (IC50 standard / IC50 test)
GLPREYVNAR (also called Her2/neu.549 (10-mer)) [HER2/neu peptide, position 549, 10 amino acids] | 0.0002 ratio (IC50 standard / IC50 test)
ALESILRRR (also called Her2/neu.890 (9-mer)) [HER2/neu peptide, position 890, 9 amino acids] | 0.0013 ratio (IC50 standard / IC50 test)
AMPNQAQMR (also called Her2/neu.705 (9-mer)) [HER2/neu peptide, position 705, 9 amino acids] | 0.0004 ratio (IC50 standard / IC50 test)
ALTLIDTNR (also called Her2/neu.180 (9-mer)) [HER2/neu peptide, position 180, 9 amino acids] | 0.0004 ratio (IC50 standard / IC50 test)
EVTAEDGTQR (also called Her2/neu.321 (10-mer)) [HER2/neu peptide, position 321, 10 amino acids] | 0.0002 ratio (IC50 standard / IC50 test)
DLAARNVLVK (also called Her2/neu.845 (10-mer)) [HER2/neu peptide, position 845, 10 amino acids] | 0.0018 ratio (IC50 standard / IC50 test)
GLACHQLCAR (also called Her2/neu.508 (10-mer)) [HER2/neu peptide, position 508, 10 amino acids] | 0.011 ratio (IC50 standard / IC50 test)
ETEYHADGGK (also called Her2/neu.874 (10-mer)) [HER2/neu peptide, position 874, 10 amino acids] | 0.0003 ratio (IC50 standard / IC50 test)
DVRPQPPSPR (also called Her2/neu.1144 (10-mer)) [HER2/neu peptide, position 1144, 10 amino acids] | 0.0003 ratio (IC50 standard / IC50 test)

The binders below were run against T4, HLA-A*2401 (human) (assay: inhibition of 125I-labelled standard peptide binding to purified HLA, gel filtration).
T4 construct: Purified HLA class I molecule (kind: MHC class I); also called A*2402

Binder | relative binding ratio
CFVHTVPW (also called Her2/neu.475 (8-mer)) [HER2/neu peptide, position 475, 8 amino acids] | 0.019 ratio (IC50 of standard peptide / IC50 of test peptide)
AYSLTLQGL (also called Her2/neu.440 (9-mer)) [HER2/neu peptide, position 440, 9 amino acids] | 0.13 ratio (IC50 of standard peptide / IC50 of test peptide)
AFSPAFDNL (also called Her2/neu.1212 (9-mer)) [HER2/neu peptide, position 1212, 9 amino acids] | 0.0011 ratio (IC50 of standard peptide / IC50 of test peptide)
AFGTVYKGIWI (also called Her2/neu.730 (11-mer)) [HER2/neu peptide, position 730, 11 amino acids] | 0.0008 ratio (IC50 of standard peptide / IC50 of test peptide)
AFGTVYKGIW (also called Her2/neu.730 (10-mer)) [HER2/neu peptide, position 730, 10 amino acids] | 0.001 ratio (IC50 of standard peptide / IC50 of test peptide)
AFDNLYYW (also called Her2/neu.1216 (8-mer)) [HER2/neu peptide, position 1216, 8 amino acids] | 0.0039 ratio (IC50 of standard peptide / IC50 of test peptide)
AMPNQAQMRIL (also called Her2/neu.705 (11-mer)) [HER2/neu peptide, position 705, 11 amino acids] | -0.0003 ratio (IC50 of standard peptide / IC50 of test peptide)
AYSLTLQGLGI (also called Her2/neu.440 (11-mer)) [HER2/neu peptide, position 440, 11 amino acids] | 0.023 ratio (IC50 of standard peptide / IC50 of test peptide)
AFGTVYKGI (also called Her2/neu.730 (9-mer)) [HER2/neu peptide, position 730, 9 amino acids] | 0.0002 ratio (IC50 of standard peptide / IC50 of test peptide)
AMPNQAQMRI (also called Her2/neu.705 (10-mer)) [HER2/neu peptide, position 705, 10 amino acids] | 0.0002 ratio (IC50 of standard peptide / IC50 of test peptide)
CFVHTVPWDQL (also called Her2/neu.475 (11-mer)) [HER2/neu peptide, position 475, 11 amino acids] | 0.0003 ratio (IC50 of standard peptide / IC50 of test peptide)
AWPDSLPDL (also called Her2/neu.414 (9-mer)) [HER2/neu peptide, position 414, 9 amino acids] | 0.0041 ratio (IC50 of standard peptide / IC50 of test peptide)

Reference: patent publication US20040018971A1 (published 2004)
